The target in this test is R-Ras or R-Ras(38V). The experiment in a line: co-IP.

As to “Raf-1 kinase, baculovirus-produced (from UniProt P04049 1-648) (enzyme)”, the percent of total Raf co-immunoprecipitated was in the range of 10 to 20%.

Source of the values: article PMC2120494.
